Reference: publication PMC4808055 (Nature cell biology, 2015)

Target: T1, yeast Twinfilin (Twf1), full-length (1-332) (yeast, UniProt P53250 1-332)
T1 sequence: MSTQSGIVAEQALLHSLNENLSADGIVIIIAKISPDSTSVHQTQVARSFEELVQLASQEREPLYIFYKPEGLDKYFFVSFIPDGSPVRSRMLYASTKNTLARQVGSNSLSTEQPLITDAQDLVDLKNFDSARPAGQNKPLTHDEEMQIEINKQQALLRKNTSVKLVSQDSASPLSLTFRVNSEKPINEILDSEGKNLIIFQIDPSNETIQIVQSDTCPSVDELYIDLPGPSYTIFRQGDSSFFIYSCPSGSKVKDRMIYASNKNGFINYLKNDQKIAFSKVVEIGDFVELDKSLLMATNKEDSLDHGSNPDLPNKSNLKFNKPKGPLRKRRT
Test: negative-stain electron microscopy

binding result: binds
B1: N-Srv2 (1-259) (domain or fragment)
chain: MPDSKYTMQGYNLVKLLKRLEEATARLEDVTIYQEGYIQNKLEASKNNKPSDSGADANTTNEPSAENAPEVEQDPKCITAFQSYIGENIDPLVELSGKIDTVVLDALQLLKGGFQSQLTFLRAAVRSRKPDYSSQTFADSLRPINENIIKLGQLKESNRQSKYFAYLSALSEGAPLFSWVAVDTPVSMVTDFKDAAQFWTNRILKEYRESDPNAVEWVKKFLASFDNLKAYIKEYHTTGVSWKKDGMDFADAMAQSTKN
